Starred links: 1 amine or outer side, 2 acyl side, 3 side chain; linkers in the order of their positions; H or OH if unused. Non-standard residues stand in square brackets, D forms with d. pY = N[C@@H](Cc1ccc(OP(=O)(O)O)cc1)C(=O)O; Cysteamide = C(CS[*:3])N[*:1]; Dap = NC[C@H](N)C(=O)O
Target: GST-Lck-SH2 (UniProt P06239)
Test: fluorescence change on Src-catalysed phosphorylation in presence of GST-Lck-SH2 (1.25 µM peptide, 5 µM Lck-SH2, 12 nM Src, 1 mM ATP)

Chain of GST-Lck-SH2 (P06239 127-224): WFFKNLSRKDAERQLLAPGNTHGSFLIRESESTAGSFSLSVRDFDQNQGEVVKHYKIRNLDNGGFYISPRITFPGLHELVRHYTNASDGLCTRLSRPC

Fold change in fluorescence intensity: 0.6 fold
Binder: Ac-EEEI[pY][Dap](dapoxyl)EIEA-Cysteamide (not fully specified)

From patent US20060211075A1, “Enzyme sensors including environmentally sensitive or fluorescent labels and uses thereof” (The Albert Einstein College of Medicine of Yeshiva …, priority 2005, published 2006)
